Columns and labels:
[1] = target: B7 molecules on WEHI 231 cells (B7-1 and B7-2); experiment: flow cytometry, titered staining of WEHI 231 cells
[2] = target: B7 molecules on WEHI 231 cells (B7-1 and B7-2); experiment: flow cytometry, titered staining of WEHI 231 cells; estimate from detectable concentrations

Chain of mCTLA4-mIgG2am (P09793 36-161): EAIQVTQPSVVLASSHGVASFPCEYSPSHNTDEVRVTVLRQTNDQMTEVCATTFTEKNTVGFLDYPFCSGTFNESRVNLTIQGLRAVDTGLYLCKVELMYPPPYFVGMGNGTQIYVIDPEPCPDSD

concentration at which staining was clearly detectable [1]: 8 ng/mL | fold greater binding affinity than mICOS-mIgG2am binding to GL50 on WEHI cells [2]: > 100 fold
Substance: mCTLA4-mIgG2am (from UniProt P09793 36-161) (Fc fusion)

Reference: patent US20040054158A1
